# Measurements reported in US11759508B2, “Antigenic peptides for treatment of B-cell malignancy” (ENTEROME S.A., priority 2019, dated 2023).
# Assays:
# HLA-A*0201 = biological target: T1, HLA-A*0201 (Homo sapiens, UniProt P04439, D140Y/D185E/D98H/E176V/E277Q/G131W/G231S/I119V/I121R/I166T/I218V/L300P/L318F/N151K/N90K/P208A/P217A/Q86G/Q94H/R138H/R169H/T345S); assay: Affinity of the peptide to T2 cell line (HLA-A*0201 expression, FACS, relative to HIV pol 589-597); assay type: binding; settings: for mean relative fluorescence intensity of T2 cells: normalized to HIV peptide = 100
# T1 construct: human tumoral cell T2 which expresses the HLA-A*0201 molecule; endogenous in cells; host or cells: T2 cells (human, TAP1/2 negative)
# Source text: The experimental protocol is similar to the one that was validated for peptides presented by the HLA-A*0201 (Tourdot et al., A general strategy to enhance immunogenicity of low-affinity HLA-A2.1-associated peptides: implication in the identification of cryptic tumor epitopes. Eur J Immunol. 2000 December; 30(12):3411-21). Affinity measurement of the peptides is achieved with the human tumoral cell T2 which expresses the HLA-A*0201 molecule, but which is TAP ½ negative and incapable of presenting endogenous peptides.
# (§1) T2 cells (5.104 cells per well) are incubated with decreasing concentrations of peptides from 100 μM to 0.1 μM (4 points: 100 μM, 10 μM, 1 μM, 0.1 μM) in serum-free medium (TexMacs) supplemented with […] of β2 Microglobulin at 37° C. for 16 hours. Cells are then washed two times and marked with the anti-HLA-A2 antibody coupled to PE (clone BB7.2, BD Pharmagen).
# The analysis is achieved by FACS (Macsquant analyzer 10-Miltenyi).
# For each peptide concentration, the geometric mean of the labelling associated with the peptide of interest is subtracted from background noise and reported as a percentage of the geometric mean of the […] labelling obtained for the reference peptide HIV pol 589-597 at a concentration of 100 μM. […] A2. Solubilisation of Peptides
# as §1, with “32” for “β2”
# For each peptide concentration, the geometric mean of the labelling associated with the peptide of interest is subtracted from background noise and reported as a percentage of the geometric mean of the […] labelling obtained for the reference peptide HIV pol 589-597 at a concentration of 100 μM.
# [1] = system: HLA-A2 HHD-DR1 humanized mice; assay: ELISPOT-IFNγ on splenocytes of vaccinated HLA-A2 HHD-DR1 transgenic mice; assay type: in vivo, mouse; settings: prime d0 and boost d14, splenocytes d21, listed as CD22-B2
# [2] = system: T2 cells loaded with bacterial peptide or human counterpart peptide; assay: Cytotoxic assay of peptide-specific CD8+ T cells against peptide-loaded T2 cells (flow cytometry); assay type: cell-based
# Source text: CD8+ T cells expanded per above were used to perform cytotoxic assays in presence of different ratios of target and effector cells to assess their cytotoxic capacity, using flow cytometry readout. Target cells were T2 cell lines loaded with bacterial peptide or human counterpart peptide. Negative control was T2 cells unloaded and T2 cells loaded with irrelevant peptide. […] More importantly, CD22-B1, CD37B1, TNFRSF13C-B1 and MS4A1-B4-specific human T cells clones expanded in vitro were able to kill T2 cells loaded with the human TNFR13C (BAFF-R) or MS4A1 (CD20) peptide when cross-reactivity is observed with the staining (FIG. 17).
sequence,measurement,setting,value
YIFEHPELL (YIFEHPETA) [CD22-B1],Concentration of peptide that induces 20% of HLA-A2 expression,"HLA-A*0201; T2 cells, peptide 100-0.1 μM, 16 h, 37° C., anti-HLA-A2 FACS",0.16 µM
same,In vitro binding affinity* (relative affinity),HLA-A*0201; normalized against HIV-pol concentration of peptide inducing 20% of HLA-A2 expression in the same experiment,0.4
same,mean relative fluorescence intensity of T2 cells,HLA-A*0201; peptide 0.1 (μM),0
same,mean relative fluorescence intensity of T2 cells,HLA-A*0201; peptide 1 (μM),81
same,mean relative fluorescence intensity of T2 cells,HLA-A*0201; peptide 10 (μM),123
same,mean relative fluorescence intensity of T2 cells,HLA-A*0201; peptide 100 (μM),164
same,immunogenicity (T cell response in ELISPOT-IFNγ after vaccination),[1],strongly immunogenic
same,killing of T2 cells loaded with the bacteria peptide by peptide-specific human T cell clones,"[2]; clones expanded in vitro, FIG. 18",capacity to kill
same,killing of T2 cells loaded with the human TNFR13C (BAFF-R) or MS4A1 (CD20) peptide by peptide-specific human T cell clones,[2]; when cross-reactivity is observed with the staining (FIG. 17),able to kill
